Test system: MS2 coat protein
Experiment: apparent KD of MS2 coat protein; designed switch direction (-1 OFF switch, 1 ON switch): -1; higher = weaker reporter binding
Outline: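 SNAP-549-labelled MS2 coat protein was titrated, doubling from 0.7 or 1.5 nM to 3 µM, over designed RNA switches transcribed on Illumina chips by stalled E. coli RNA polymerase. Runs were done without input, with 200 uM small-molecule ligand, or with an oligonucleotide input. Apparent KD is the per-design median over clusters of curve-fitted normalised fluorescence.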

[1] = Eterna round: R95, input ligand: FMN 200 uM
[2] = Eterna round: R95, input ligand: microRNA oligo, concentration not stated
[3] = Eterna round: R95, input ligand: none
[4] = input ligand: microRNA oligo, concentration not stated

Sequence	apparent KD of MS2 coat protein [2]	apparent KD of MS2 coat protein (input ligand: FMN 200 uM)	apparent KD of MS2 coat protein (input ligand: none)	also measured
CAGUACUGAGGAUAUACAUGAGGAUCACCCAUGUGUCCCAGCUAGGAAACUAGCAAAAGUAGAAGGCAGUACUG [Fiskers Ex 3 828 mod 1] (puzzle: Exclusion 3)	24.4 nM			apparent KD of MS2 coat protein [1]: 420 nM; apparent KD of MS2 coat protein [3]: 24.5 nM
AAAAACAAGCCCAUGCUCGUCUUAAGAUCGAAAGAUCAAACAUGAGGAUCACCCAUGUGCGAGCAUGGGUGAUCCUC [Sensor v2, turn off variant 2 (JL Turnoff v2 4 - MOD3)] (Eterna round: R96, puzzle: Sensor v2, turn-off variant 2)		21.9 nM	16.6 nM	apparent KD of MS2 coat protein [4]: 10.2 nM
ACAUUGUGAGGAUAUCCGAAGAAGGUCCGGAAGGUUCGGGUGGAGAAGGCACAUGAGGAUCACCCAUGUGUGGG [Excls4-VIII] (puzzle: Exclusion 4)	39.3 nM			
GUAAUGCUAGGAUAUCGACAAAUUUACAUGAGGAUCACCCAUGUGAACCCUGUGUGGUAACGAGAAGGAGUCAGCU [Eternabot (L2) Solution 54] (Eterna round: R97, puzzle: Exclusion 5)		39.1 nM	53.5 nM	
UUUUAACAUGAGGAUCACCCAUGUGAGGAUAUGGUAUUUUUUUUUUUUUUUUUUUUUUCCAGAAGGCACAUUUU [My solution] (puzzle: Exclusion 1)	35.1 nM			apparent KD of MS2 coat protein [1]: 38.4 nM; apparent KD of MS2 coat protein [3]: 74.9 nM
AUCGUACAGCAAAGCUGUACGAGUACAUGAGGAUCACCCAUGUAGGAUAUGGUACGCAAAGCGUGCUAGAAGGAUAUGAGAUUU [Mat - Exclusion NG 3 - Mod of JL - D101] (Eterna round: R96, puzzle: Exclusion NG 3)		48.5 nM	48.7 nM	apparent KD of MS2 coat protein [4]: 30.4 nM
GGUCCACGAGGAUAUCGAUUAUAGUACAUGAGGAUCACCCAUGUUGUCCAGGUUUCGAUUCGAGAAGGCGUGGGUU [LRO-Ex5-02] (puzzle: Exclusion 5)	51.8 nM			
GUAGAGUCAGGAUAUACGAGAUCGAAAGAUCAGUGGUCCUUACAUGAGGAUCACCCAUGUAGAAGGGACUCUAC [Omei mod 12 to Eli's favorate candidate (ch.parushev)] (Eterna round: R97, puzzle: Exclusion 2)		39.6 nM	790 nM	
CGGGUCGGAGGAUAUACAGAAGCAUCUGUGUCGGGAAUAUGACAUGAGGAUCACCCAUGUAGAAGGCCGAUCAC [Eternabot (L2) Solution 98] (Eterna round: R97, puzzle: Exclusion 2)		485 nM	80 nM	
AUUUUGUCAGGAUAUGAGUAGUAGGACGAAAGUGCUACUACUUAGAAGGGACAUGAGGAUCACCCAUGUCUUCC [Bring Us a Shrubbery-05] (puzzle: Exclusion 4)	13.5 nM			
AUUAUAUAGGUAGGAUAUAGAAUAUUAUUUUAACAUGAGGAUCACCCAUGUAACCUUAUGUGUAGCUAGAAGGACCAUUUAUUA [Title] (Eterna round: R96, puzzle: Exclusion NG 2)				apparent KD of MS2 coat protein [4]: 64.6 nM
ACAAGCUUUUUGUUCGUCUUAUAAUAUUCUAAGAGGAUAACAUGAGGAUCACCCAUGUAACAAAGACGGACUCAUGU [Sesor Array 14 - Jieux - Sensor v3, turn-off variant 2] (puzzle: Sensor v3, turn-off variant 2)	139 nM			apparent KD of MS2 coat protein [1]: 13 nM; apparent KD of MS2 coat protein [3]: 11.7 nM
AGUCGGUCAGGAUAUGCAGACGUAGACAUGAGGAUCACCCAUGUAACGUGGGCCUGGUUUGUAGAAGGGACGAGCA [EX5 #84] (Eterna round: R97, puzzle: Exclusion 5)		47.9 nM	42.4 nM	
UUUUAGUCAGGAUAUACAUGAGGAUCACCCAUGUAAAAUUUUAAUUUAAUUUUAAGGUGUAGAAGGGACAUUUA [Ex3 #6] (Eterna round: R97, puzzle: Exclusion 3)		28.4 nM	33.6 nM	

Source: the supplement of paper PMC9170038
